Laboratory results published in patent US10556936B2, “Immunogenic proteins and fragments thereof from allergenic mites” (ALK-ABELLÓ A/S, priority 2016, dated 2020).

B1: A003: house dust mite protein; SEQ ID NO: 2 (Der f), 3 (Der p), 305 (Blo t) (protein)
chain: MAIDGKYQMESSEHFEEFVKEMGLDVDMTNVDLSKTSTMEICKDGDVYHIKSETAGIAHEIKFKVGEEFEDDMNGHKFKNVVTMECDNKMVQKKTSADGGKVVNVVREFTDAGCTVKSTYNTVTWTRVYKRM
B2: Derp1: major house dust mite allergen, group 1, Dermatophagoides pteronyssinus; control (protein, UniProt P08176 99-320, looked up)
Peptidase 1: TNACSINGNAPAEIDLRQMRTVTPIRMQGGCGSCWAFSGVAATESAYLAYRNQSLDLAEQELVDCASQHGCHGDTIPRGIEYIQHNGVVQESYYRYVAREQSCRRPNAQRFGISNYCQIYPPNVNKIREALAQTHSAIAVIIGIKDLDAFRHYDGRTIIQRDNGYQPNYHAVNIVGYSNAQGVDYWIVRNSWDTNWGDNGYGYFAANIDLMMIEEYPYVVIL
B3: A001: house dust mite protein; SEQ ID NO: 13 (Der f), 14 (Der p); recombinant test protein (protein)
chain: KKSPDCDIERPIRECLKDGLLRYSSGQKINQFPDTIQDLNRACEELKKSETCARTFIDTCTESSYEKRSLDSLLDGIQRVMKRLCRSQTKKEKLLENVGCANSVVQDTKQCLKNYRMLVFAANKLDNKNKIMRILCCKSRKVAPCIGEAMKAKGTAVCSAKNIDYFKDVHQNIKQEMTAVVCSDFERDQCENVDVPNISESEYKDQNIFNPLRDLYKKVILG
B4: Derp2: major house dust mite allergen, group 2, Dermatophagoides pteronyssinus; control (protein, UniProt P49278 18-146, looked up)
Mite group 2 allergen Der p 2: DQVDVKDCANHEIKKVLVPGCHGSEPCIIHRGKPFQLEAVFEANQNTKTAKIEIKASIDGLEVDVPGIDPNACHYMKCPLVKGQQYDIKYTWNVPKIAPKSENVVVTVKVMGDDGVLACAIATHAKIRD
B5: Derf2: major house dust mite allergen, group 2, Dermatophagoides farinae; control (protein, UniProt Q00855 18-146, looked up)
Mite group 2 allergen Der f 2: DQVDVKDCANNEIKKVMVDGCHGSDPCIIHRGKPFTLEALFDANQNTKTAKIEIKASLDGLEIDVPGIDTNACHFMKCPLVKGQQYDIKYTWNVPKIAPKSENVVVTVKLIGDNGVLACAIATHGKIRD

tested on: basophils in whole blood from HDM allergic donors; test: Basophil Activation Test (BAT); assay type: cell-based, human; conditions: 1 ng/ml; blood from HDM allergic individuals (n=14)
Outline: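 Basophil activation was read by flow cytometry as increased surface activation markers. The stimulus was a 1 h exposure of blood from 14 HDM-allergic donors to test proteins or major mite allergens at graded concentrations (e.g. 1–1000 ng/ml).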

Molecule	# of individuals of 14 with positive BAT test
B1	0
B2	7
B3	0
B4	13
B5	13

same assay, conditions: 10 ng/ml; blood from HDM allergic individuals (n=14)

Molecule	# of individuals of 14 with positive BAT test
B1	0
B2	10
B3	0
B4	13
B5	13

same assay, conditions: 100 ng/ml; blood from HDM allergic individuals (n=14)

Molecule	# of individuals of 14 with positive BAT test
B1	0
B2	10
B3	1
B4	13
B5	13

same assay, conditions: 1000 ng/ml; blood from HDM allergic individuals (n=14)

Molecule	# of individuals of 14 with positive BAT test
B1	1
B2	10
B3	2
B4	13
B5	13

tested on: T cell lines obtained from HDM allergic individuals and non-allergics; test: In vitro T cell proliferation test in T cell lines (Example 3); assay type: cell-based, human; conditions: T cell lines from HDM allergic individuals (n=30); 0.5 or 2 ug/ml; 72 h
Outline: (§1)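 Freshly isolated PBMC (5×10^6/ml) from mite-allergic patients or non-allergics cultured 5 days with test protein up to 10 ug/ml; IFN-gamma, IL-9, IL-10, IL-17, IL-31 in supernatants by multiplex immunoassay. T cell lines, raised 3 weeks on HDM extract, tested at 0.5 or 2 ug/ml protein in 72 h proliferation assay.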

Molecule	% responders of in-vitro T cell proliferation test, Allergic
B1	3%
B2	73%
B3	17%
B4	57%
B5	67%

same assay, conditions: T cell lines from non-allergics (n=8); 0.5 or 2 ug/ml; 72 h

Molecule	% responders of in-vitro T cell proliferation test, Non-allergics
B1	0%
B2	13%
B3	0%
B4	0%
B5	14%

tested on: PBMC cells obtained from mite allergic patients and non-allergics; test: Ex vivo stimulation of PBMC: cytokine production (IFN-gamma, IL-9, IL-10, IL-17, IL-31); assay type: cell-based, human; conditions: HDM allergic individuals; IL-5
Outline: as §1

Molecule	% HDM allergic individuals with cytokine production in ex-vivo T cell assay IL-5
B1	6%
B2	50%
B3	6%
B4	56%
B5	63%

same assay, conditions: HDM allergic individuals; IL-9

Molecule	% HDM allergic individuals with cytokine production in ex-vivo T cell assay IL-9
B1	0%
B2	6%
B3	0%
B4	31%
B5	50%

same assay, conditions: HDM allergic individuals; IL-10

Molecule	% HDM allergic individuals with cytokine production in ex-vivo T cell assay IL-10
B1	19%
B2	50%
B3	75%
B4	56%
B5	81%

same assay, conditions: HDM allergic individuals; IL-13

Molecule	% HDM allergic individuals with cytokine production in ex-vivo T cell assay IL-13
B1	13%
B2	50%
B3	6%
B4	50%
B5	69%

same assay, conditions: HDM allergic individuals; IL-17

Molecule	% HDM allergic individuals with cytokine production in ex-vivo T cell assay IL-17
B1	13%
B2	6%
B3	25%
B4	0%
B5	13%

same assay, conditions: HDM allergic individuals; IL-31

Molecule	% HDM allergic individuals with cytokine production in ex-vivo T cell assay IL-31
B1	0%
B2	0%
B3	0%
B4	6%
B5	6%

same assay, conditions: HDM allergic individuals; INF-g

Molecule	% HDM allergic individuals with cytokine production in ex-vivo T cell assay INF-g
B1	0%
B2	0%
B3	6%
B4	0%
B5	6%

same assay, conditions: non-allergic individuals; IL-5

Molecule	% non-allergic individuals with cytokine production in ex-vivo T cell assay IL-5
B1	0%
B2	0%
B3	0%
B4	0%
B5	0%

same assay, conditions: non-allergic individuals; IL-9

Molecule	% non-allergic individuals with cytokine production in ex-vivo T cell assay IL-9
B1	0%
B2	0%
B3	0%
B4	0%
B5	0%

same assay, conditions: non-allergic individuals; IL-10

Molecule	% non-allergic individuals with cytokine production in ex-vivo T cell assay IL-10
B1	17%
B2	17%
B3	100%
B4	17%
B5	33%

same assay, conditions: non-allergic individuals; IL-13

Molecule	% non-allergic individuals with cytokine production in ex-vivo T cell assay IL-13
B1	0%
B2	0%
B3	0%
B4	0%
B5	0%

same assay, conditions: non-allergic individuals; IL-17

Molecule	% non-allergic individuals with cytokine production in ex-vivo T cell assay IL-17
B1	17%
B2	17%
B3	50%
B4	0%
B5	67%

same assay, conditions: non-allergic individuals; IL-31

Molecule	% non-allergic individuals with cytokine production in ex-vivo T cell assay IL-31
B1	0%
B2	0%
B3	0%
B4	0%
B5	0%

same assay, conditions: non-allergic individuals; INF-g

Molecule	% non-allergic individuals with cytokine production in ex-vivo T cell assay INF-g
B1	0%
B2	0%
B3	0%
B4	0%
B5	17%
